US20260258115A1 (MAPP BIOPHARMACEUTICAL, published 2026)

Tests used:
[1] = target: RSV postfusion F (postF), F ΔFP (Respiratory Syncytial Virus, UniProt P03420 26-513); test: BLI, IgG on anti-human IgG sensor, 100 nM antigen, 1:1 fit
[2] = target: RSV prefusion F (preF), DS-Cav1 (Respiratory Syncytial Virus, UniProt P03420 26-513); test: as above
RSV F on RSV-A2 virus = RSV F on RSV-A2 virus (Respiratory Syncytial Virus (RSV-A2), UniProt P03420 26-574); test: cell-based or functional assay

Row | Binder | Kd [1] [nM] | Kd [2] [nM] | Neutralization IC50 (RSV subtype A) (RSV F on RSV-A2 virus) [µg/mL]
1 | ADI-41545 (antibody, V domains shown, also called Ab 817; Antibody Number 817) VH: QVQLVESGPGLVKPSETLSLTCTVSGGSISRYYWSWIRQSPGKGLEWIGYIYHSVITNYNPSLKSRVTISIDMSKNQFSLKLSSVTAADTAVYYCASRPLINGYGPDNYFDYWGQGTLVTVSS VL: SYVLTQPPSVSVAPGQTARITCGGNNIGSKSVHWYQRKPGQAPVLVVYDDSDRPSGIPERFSGSNSGNTATLTIIRVEAGDEADYYCQVWDNSSDHPVFGGGTKLTVL | 0.825 | 1.36 | > 25
2 | ADI-41532 (antibody, V domains shown) VH: QVQLVQSGAEVKKPGESLKISCKGSGYSFTSSWIGWVRQMPGKGLEWMGIIYPGDSDTRYSPSIQGRVTISADKSITTAYLQWSSLKASDTATYYCAKFGGYADAYFYHGMDVWGQGTTVTVSS VL: not shown | 0.392 | 1.92 | > 25
3 | ADI-41531 (antibody, V domains shown, also called Ab 803; Antibody Number 803) VH: EVQLLESGGDLVQPGGSLRLSCAASGFTFFSYALNWVRRTPGKGLEWVSGISGSGGSTYYADSVKGRFTISRDNSKSTLYLQMNSLKVDDTAVYFCAKDFQHDYGDPYRSYYFDHWGQGTLVTVSS VL: DIQLTQSPSSLAASVGDRVTITCQASRDIRKSLNWYQVKPGKAPKLLISDASYLETGVPPRFSGSGFGTHFTFTISSLQPEDIATYYCQQYDNLPPPTFGGGTKVDIK | 0.377 | 2.08 | > 25
4 | ADI-41526 (antibody, V domains shown) VH: QVQLVQSGAEVKKPGASVKVSCEASGYTFTDYYMHWVRQAPGQGLEWMGWINPNSGVTKIAQNFQGRVTMTRDTSITTAYMDLSRLRSDDTAVYYCARVVDGDYDNWFDFWGQGTLVTVSS VL: SYVLTQPPSASGTPGQRVTISCSGSTSNIGTNTVNWYQQPPGMAPKLLIYANNQRPSGVPDRFSGSKSGTSASLAISGLQSEDEADYHCAVWDDSLPGWVFGGGTKLTVL | 0.336 | 0.301 | > 25
5 | ADI-41540 (antibody, V domains shown) VH: QVQLQQWGAGLLKPSETLSLTCGVYGGSFTGYQWSWIRQSPGKGLEWIGDIDHGGNTNYRPSLKSRIITSVNMSKKEFSLKLASVTAADTAVYYCARGVGFLEFSGGPTGRRRNWFDSWGQGTLVTVSS VL: DIQLTQSPGTLSLSPGEGATLSCRASQSVGGSYLAWYQQRPGQAPRLLIYGASNRAADSPDRFSGSGSATDFTLTISRLEPEDFAVYYCQQYGSSPWTFGQGTKVEIK | 0.686 | 3.54 | > 25
6 | ADI-41539 (antibody, V domains shown) VH: QVQLVESGAEVKKPGASVKVSCKASGYNFIDYGISWVRQAPGQGLEWVGWISAYNGNTNYAQKLQGRVTMTTDTSTNTAYMELRSLRSDDTALYYCARDSSSLHPTYYYYYPMDVWGQGTTVTVSS VL: not shown | 0.615 | 3.38 | 0.18
7 | ADI-41529 (antibody, V domains shown) VH: EVQLVQSGAEVRRPGSSVKVSCKASGGTLDTDSISWVRQVPGQGLVWVGGVIPILGSVVYARKFQGRVTITADGSTSTAYMELRSLRSEDTAMYYCASQFYDFRRGYFDAFDIWGQGTTVTVSS VL: ETTLTQSPGILSLSPGERATLSCRATQTVISNYINWYQQKPGQAPRLLIYGASSRATGIPDRFSGSGSGTDFTLTISRLEPEDFAVYYCQRYDSSPPGFTFGPGTKVDIK | 0.351 | 1.03 | > 25
8 | ADI-41538 (antibody, V domains shown, also called Ab 810; Antibody Number 810) VH: EVQLVESGGGLVKPGGSLRLSCAASGFTLSTYGVNWVRQAPGKGLEWVSSISSSGNNIHYADSVKGRFTVFRDNAKHSMYLQMNSLRAEDTAVYYCARSLDYSNYYYYYGLDVWGQGTTVTVSS VL: not shown | 0.587 | 3.44 | > 25
9 | ADI-41543 (antibody, V domains shown) VH: QVQLVQSGAEVKKPGASVRVSCKASGYTLTGYYIHWLRQAPGQGLEWVGRINPNTGETSYSQKFQGRVIMTRDTSVSTAYVDLSRLRSRDTAVYFCARSDVMITVTAEGDFSYYYYRFDVWGQGTTVTVSS VL: DIVMTQTPLSLPVTPGEPASISCRSSQSLLHSNGHNYLDWYLQKPGQSPQLLIYLGSIRASGVSDRFSGSGSGTDFTLKISRVEAEDVGIYYCMQALQTPHFGGGTKVEIK | 0.796 | 2.9 | > 25
10 | ADI-41508 (antibody, V domains shown, also called Ab 786; Antibody Number 786) VH: QVQLVQSGAEVRKPGASVKVSCKASGYGFRSYDLTWVRQAPGKGLEWVGWISAYSGGTNYAQTLQGRVTMTTDTSTSTAYMELRSLGPDDTAVYYCARAGLYGSGSPDGFDSWGQGTLVTVSS VL: SYELTQPPSVSVSPGQTASITCSGDKLGDKYASWYQQRPGQSPVLVISQDTKRPSGIPERFSGSTSGNTAILTISGTQAMDEADYYCLAWDSSTAWVFGGGTKLTVL | 0.555 | 4.15 | 0.1
11 | ADI-41527 (antibody, V domains shown, also called Ab 799; Antibody Number 799) VH: EVQLLESGGGLVQPGGSLRLSCAASGFTFTSYWMSWVRQAPGQGLEWVATIKQDGSEKYYVDSVKGRFTISRDNAKNSLYLQMNSLGAEDTAVYYCARDMYCSTTTCYFFETYYYNGMDVWGQGTTVTVSS VL: DIRLTQSPSSVSASVGDRVTITCRASQVTSTWLAWYQQNPGKAPKLLIYAASRLQSGVPSRFSGSGSGTEFTLTISSLQPEDFATYYCQQANSFPLTFGGGTKVEIK | 0.337 | 0.712 | > 25
12 | ADI-41535 (antibody, V domains shown) VH: QVTLKESGPALVKPTQTLTLTCTFSGFSLSTSRMCVSWIRQSPGKALEWLARIDWDDDKFFSTSLKTRLTISKDTSRNQVVLTMTNMDPVDTATYYCARTTVYASGGYYLYYFDYWGQGTLVTVSS VL: DIQLTQSPSSLPASVGDRVTITCRASQRIASYLNWYQQKPGKAPKVLIYAASNLQSGVPSRFSGSGSGTDFTLTINSLQPEDFATYYCQQSYTTPWTFGQGTKVEIK | 0.476 | 1.93 | > 25
13 | ADI-41530 (antibody, V domains shown, also called Ab 802; Antibody Number 802) VH: QVQLVESGAEVKKPGASVKVSCRASGYTFSAYDINWVRQAPGQGLEWVGWMNPNSGNTGYALRFQGRVTMTRDTSINTAYMELSSLRSDDTAVYYCAAQLWYPNWGQGTLVTVSS VL: SYELTQPPSVSVGLGQTASITCGGNNIGSKSVHWYQQKPGQAPTLVIYRDTNRPSGIPERFSGSNSENTATLTISRAQAGDEADFYCQVSDNYSWVFGGGTKLTVL | 0.355 | 1.91 | > 25
14 | ADI-41536 (antibody, V domains shown, also called Ab 808; Antibody Number 808) VH: EVQLVESGAGLLKPSETLSLTCVVYGGSFSGYYWSWIRQPPGKGLEWVGDINHSTTTNYNPSLESRITISIDTSKNQFSLNLSSVTAADSAVYYCARGPKECTSSSCDRFGVDYFYYGMDVWGRGTTVTVSS VL: QSVLTQPPSVSGAPGQRVTISCTGSSANIGAGYDVHWYQQFPGTAPKLLIFGNSNRPSGVPDRFSGSKSGTSASLAITGLQAEDEADYYCQSYDGTLGGWVFGGGTQLTVL | 0.476 | 3.05 | > 25
15 | ADI-41537 (antibody, V domains shown) VH: EVQLLESGGGLVQPGGSLRLSCAASEFTFSRYPMSWVRQAPGKGLEWVSGISVSGDSTYYADSVKGRLTISRDNSKNTLYLQMNSLRAEDTAVYYCAIDHYDTSGYYGMDVWGQGTTVTVSS VL: DIRLTQSPLSLPVTPGEPASISCRSSRSLLRSNGYNYLDWYLQKPGQSPQLLIYLGSNRASGVPDRFSGSGSGTDFTLKISRVEAEDVGVYYCMQALQSSYTFGQGTKLEIK | 0.488 | 2.58 | > 25
16 | ADI-41528 (antibody, V domains shown, also called Ab 800; Antibody Number 800) VH: EVQLVESGGGVVQPGRSLRLSCAASGFTFSSYAMHWVRQAPGKGLEWVAVISFDGSSDYYADSVKGRFTISRDSSKNTLYLRMNSLRAEDTAVYYCARRAVEYSIYNNDAFDVWGQGTTVTVSS VL: SYELTQPPSVSVSPGQTASITCSGDKLGNKFTFWYQQKSGQSPVLVIYQETKRPSGIPERFSGSNSGNTATLTISGTQSMDEADYYCQAWDSSTAFFGGGTKLTVL | 0.348 | 2.28 | > 25
17 | ADI-41534 (antibody, V domains shown, also called Ab 806; Antibody Number 806) VH: QVQLVQSGGGVVQPGRSLRLSCAASGFTFSNYAMHWVRQAPGKGLEWVTLISYDGSAQDYADSVKGRITISRDNSKNTLYLQMSSLRPEDTAVYYCARYYCTNDVCSSSALDIWGQGTTVTVSS VL: SYELIQPPSVSVSPGQTASITCSGDKLGNKFTCWYQQKPGQSPVLVIYQDSKRPSGIPERFSGSNSGNTATLTISGTQAMDEADYYCQAWDSSTVVFGGRTKLTVL | 0.472 | 3.31 | > 25
18 | ADI-41533 (antibody, V domains shown) VH: QVQLVESGGGVVQPGRSLRLSCAASGFTFSSYAMHWVRQAPGKGLEWLAVISFDGSSEFYGDSVRGRFTISRDNSKNTLYLRVNSLRAEDTALYYCARRSLKYSMYNNDAFDVWGQGTTVTVSS VL: QPVLTQPPSVSVSPGQTASITCSGDKLGNKFTFWYQQKSGQSPVLVIYQESQRPSGIPERFSGSNSGNTATLTIRGAQAMDEADYYCQAWDSSTAFFGGGTKLTVL | 0.423 | 1.47 | > 25
19 | ADI-41541 (antibody, V domains shown, also called Ab 813; Antibody Number 813) VH: QITLKESGPTLVKPTQTLTLTCTFSGFSLSSSGVGVGWIRQPPGKALEWLALIYWDDDKRYSPSLKSRLTITKDTSKNQVVLTMTNMDPVDTATYYCAHRGPYYYDMSGYYYEAFDIWGQGTTVTVSS VL: SYELMQPPSVSVAPGQTARITCGGNNIGSKGVHWYQQKPGQAPVLVVYDDNDRPSGIPERFSGSNSGNTATLTISRVEAGDEADYYCQVWDSSSDHHYVFGTGTKVTVL | 0.776 | 2.47 | > 25
